Experimental data taken from PMC8385704.

target: ACE2-Fc fusion protein (extracellular domain of human ACE2 and the Fc region of human IgG1) (human) (UniProt Q9BYF1); assay: ELISA
Sequence (Q9BYF1 18-740): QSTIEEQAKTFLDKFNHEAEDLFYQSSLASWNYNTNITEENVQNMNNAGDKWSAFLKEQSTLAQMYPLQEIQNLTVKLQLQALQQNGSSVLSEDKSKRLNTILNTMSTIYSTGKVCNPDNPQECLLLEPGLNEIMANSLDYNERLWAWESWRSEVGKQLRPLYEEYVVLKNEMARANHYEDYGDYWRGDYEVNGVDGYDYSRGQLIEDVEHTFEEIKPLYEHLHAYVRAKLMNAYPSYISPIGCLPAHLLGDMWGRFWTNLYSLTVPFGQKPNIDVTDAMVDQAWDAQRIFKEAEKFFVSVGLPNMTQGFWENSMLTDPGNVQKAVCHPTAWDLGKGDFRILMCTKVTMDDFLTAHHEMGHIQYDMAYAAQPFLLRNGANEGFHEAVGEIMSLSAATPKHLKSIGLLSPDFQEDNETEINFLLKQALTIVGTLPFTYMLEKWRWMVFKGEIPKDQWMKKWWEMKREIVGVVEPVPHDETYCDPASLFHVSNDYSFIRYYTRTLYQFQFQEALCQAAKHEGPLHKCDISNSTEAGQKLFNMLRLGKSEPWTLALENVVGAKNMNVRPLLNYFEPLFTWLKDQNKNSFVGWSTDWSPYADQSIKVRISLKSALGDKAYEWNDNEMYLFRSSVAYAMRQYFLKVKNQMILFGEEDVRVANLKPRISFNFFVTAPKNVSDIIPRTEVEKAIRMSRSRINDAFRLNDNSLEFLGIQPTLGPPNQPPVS

Chain of recombinant S1-subunit or RBD of HCoV-NL63 (domain or fragment) (Q6Q1S2 19-717 limits assumed): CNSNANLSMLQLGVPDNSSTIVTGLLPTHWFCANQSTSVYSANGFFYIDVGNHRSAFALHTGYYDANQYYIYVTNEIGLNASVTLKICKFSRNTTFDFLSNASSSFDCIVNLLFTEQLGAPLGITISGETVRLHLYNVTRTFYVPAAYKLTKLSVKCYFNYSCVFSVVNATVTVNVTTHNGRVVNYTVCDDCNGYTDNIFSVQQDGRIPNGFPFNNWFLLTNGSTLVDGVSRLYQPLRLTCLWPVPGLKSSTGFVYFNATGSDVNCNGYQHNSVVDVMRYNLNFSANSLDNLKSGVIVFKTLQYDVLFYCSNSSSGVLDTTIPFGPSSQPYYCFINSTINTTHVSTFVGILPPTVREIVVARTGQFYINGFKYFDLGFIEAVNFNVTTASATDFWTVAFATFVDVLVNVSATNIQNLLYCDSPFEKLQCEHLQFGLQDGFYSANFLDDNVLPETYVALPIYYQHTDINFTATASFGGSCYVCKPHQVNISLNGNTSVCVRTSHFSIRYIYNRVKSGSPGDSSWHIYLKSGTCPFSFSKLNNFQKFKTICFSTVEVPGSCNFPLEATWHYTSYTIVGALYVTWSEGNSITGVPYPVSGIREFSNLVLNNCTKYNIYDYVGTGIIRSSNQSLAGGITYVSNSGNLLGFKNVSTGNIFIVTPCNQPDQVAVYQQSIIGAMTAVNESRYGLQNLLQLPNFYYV

| Substance | EC50 [nM] |
| --- | --- |
| recombinant S1-subunit or RBD of SARS-CoV (domain or fragment) | 1.1 |
| recombinant S1-subunit or RBD of HCoV-NL63 (domain or fragment) | 24.2 |
| recombinant S1-subunit or RBD of SARS-CoV-2 (domain or fragment) | 11.8 |
